Here are results for three molecules from patent publication US20230065377A1.

Where “and” joins values, the source holds several entries; their conditions need not be identical. Equal entries are not always repeated. Where two headings read alike, the source gives them in different places.

Test [1] has as its target Eastern equine encephalitis virus (EEEV) strain FL93-939 (Eastern equine encephalitis virus, strain FL93-939).
The target is the same in test [2]. This is another data set of the same source.
The target of test [3] is Recombinant EEEV E2 glycoprotein (E3E2) (strain V105; IBT Bioservices) (Eastern equine encephalitis virus, strain V105). Briefly: ELISA, mAb on coated recombinant E2.
Test [4] concerns the target Eastern equine encephalitis virus (EEEV) strain FL93-939 (Eastern equine encephalitis virus, strain FL93-939). The source holds these as a separate data set.

B1: EEEV-143 (antibody, V domains shown)
VH: QVQLVESGGGVVQPGRSLRLSCAASGFTFSNYGIHWVRQAPGKGLEWVAVISYDGRHKYIADPVKGRFTISRDNSKNMLYLQMNSLRTEDTAVYYCAKDTSGWYEFFDSWGQGIPVTVSS
VL: EIVMTQSPATLSVSPGERATLSCRASQSVATNVAWYQQKPGQAPRLLIYGASTRATGIPARFSGSGSGTEFTLTISSLQSEDFAVYYCQQCNDWLTFGQGTKVEIK
B1 returned an IC50, neutralization, PRNT in test [1] of 315 pM.

B2: EEEV-147 (antibody, V domains shown)
VH: QVQLVQSGAEVKKPGASVKVSCKASGYTFTNYGITWVRQAPGQGLEWMGWISAYNGNTDYAQKLQGRVTMTTDTSTSTAYMELGSLRSDDTAVYYCARELWFGDLGYWGQGTLVTVSS
VL: EIVLTQSPGTLSLSPGERATLSCRASQSVSRSSSSYLAWYQQKPGQAPRLLIYGASSRATGIPDRFSGSGSGTDFTLTISRLEPEDVAVYYCQQYGSSPQTFGQGTKLEIK
Turning to B2, in test [2], the IC50, neutralization, CPE assay is below 1 µg/mL.

B3: EEEV-33 (antibody, V domains shown)
VH: QVTLKESGPALVKPTQTLTLTCTFSGFSLSTSGMRVSWIRQPPGKALEWLARIDWDDDKFYSTSLKTRLTISKDTSKNQVVLRMTNMDPVDTATYYCARILPGYCSGGSCYYNYHFDYWGQGTLVTVSS
VL: SYVLTQPPSVSVAPGQTARITCGGNNIGSKSVHWYQQKPGQAPVLVVYHDSDRPSGIPERFSGSNSGNTATLTISRVEAGDEADYYCQVWDSSSDPYVFGTGTKVTVL
Consider B3, for which the half-maximal effective concentration (EC50) in test [3] is < 4 nM and < 1.2 µg/mL. The molecule also registered an IC50, neutralization, PRNT in test [4] below 37 pM. Further, the IC50, neutralization, CPE assay in test [2] is below 0.01 µg/mL.

Broadly, the EC50 is the concentration at which the effect is half-maximal.
